From the supplement of paper PMC6755084

System: F1*sub RNA substrate (template-directed ligation)
Test: fraction ligated after 30 min (ligated reads / total reads); higher = more ligase activity; sequences stand for … in GAGACCGCAACTGAAAAGTTGT…AGTTCTGCACGTAGAAGCAAAAGGC
Conditions: 42 °C
Description: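 Chip-synthesised pool of F1* ligase ribozyme variants (all single and double substitutions, single, double and triple deletions in the catalytic core and GAA bulge, plus designed variants) was transcribed with T7 and reacted as a pool with excess substrate F1*sub for 30 min at 42 C in 50 mM EPPS pH 8.5, 25 mM MgCl2. Ligated and unligated bands were separated by PAGE, barcoded by RT and deep sequenced; fraction ligated = ligated reads / total reads per variant, relative activity = FL / FL of wild type (0.826). Sequences are the DNA template of the ribozyme.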

TATACTTGTCGAAGACCTTTGGATGGGTTGA [3d861]
fraction ligated: 0.478

TACACTTGCGTAAGAACTTTGGATGGGTTGA [3d607]
fraction ligated: 0.015

TATCACTTGTGAAGACACTTTGATGGGTTGA [3d1725]
fraction ligated: 0.818

TATCACTTGCAAGACACTTTGGATGGGTTGA [3d1599]
fraction ligated: 0.798

TATCCTTGTGTAAGACATTTGGATGGGTTGA [3d1007]
fraction ligated: 0.796

TACACTTGTGTAAGACACTTTGATGGGTTGA [3d626]
fraction ligated: 0.0413

TACATTGTCGTAAGACACTTTGGATGGGTTG [3d565]
fraction ligated: 0.163

TTCACTTGTCGTAAGACACTTGGATGGGTTG [3d490]
fraction ligated: 0.288

TATCACTTGTCGTAAGACCTGGATGGGTTGA [3d2183]
fraction ligated: 0.757

TATCACTTGTCGAAGACACTTTGGATGGGTTA [2d219]
fraction ligated: 0.803

TATATTGTCGTAAGACACTTTGGATGGTTGA [3d774]
fraction ligated: 0.0779

TATCACTTGTGTAGAACTTTGGATGGGTTGA [3d1734]
fraction ligated: 0.822

TTCACTTGTCGTAGACACTTGGATGGGTTGA [3d435]
fraction ligated: 0.489

TATCACTTGTGTAAGACACTTTGATGGTTGA [3d1796]
fraction ligated: 0.0289

TAACTTGTCGTAAGACCTTTGGATGGGTTGA [3d519]
fraction ligated: 0.196

TATCCTTGCGTAAGACACTTTGGATGGGTTA [3d998]
fraction ligated: 0.403

TATCACTTGTCGTAGACCTTTGGATGGGTTGA [2d225]
fraction ligated: 0.814

ACACTTGTCGTAAGACACTTTGGAGGGTTGA [3d42]
fraction ligated: 0.115

TATACTTGCGTAAACACTTTGGATGGGTTGA [3d816]
fraction ligated: 0.464

TATCACTTGTCTAAAACTTTGGATGGGTTGA [3d1836]
fraction ligated: 0.789

TATCACTTGTCGTAAGCATTTGGATGGGTTG [3d2127]
fraction ligated: 0.833

TATCATTTCGTAAGACACTTGGATGGGTTGA [3d1149]
fraction ligated: 0.763

TATCACTTGTCGTAAGAATTTGGATGGGTTG [3d2158]
fraction ligated: 0.798

TATCACTTGTCGAAGCACTTTGATGGGTTGA [3d1929]
fraction ligated: 0.736

ATCACTTGTCGAAGACACTTTGGATGGGTTA [3d196]
fraction ligated: 0.707

TATCACTTGTCGTAAGAACTTTGGTGGGTTA [3d2174]
fraction ligated: 0.0479

TATCACTGTGTAAGACATTTGGATGGGTTGA [3d1350]
fraction ligated: 0.849

TATCACTTGTGTAAGACACTTTGGTGGGTTA [3d1801]
fraction ligated: 0.0254

TATCACTTTCGTAAGACACTTTGGAGGGTTA [3d1579]
fraction ligated: 0.04

TACACTTGTCGTAAGCATTTGGATGGGTTGA [3d684]
fraction ligated: 0.453

TATCACTTGTCGAAACACTTGGATGGGTTGA [3d1918]
fraction ligated: 0.776

TATCACTTGTCGTAAGACATTTGATGGTTGA [3d2217]
fraction ligated: 0.00686

TTCACTTGTCGTAAACATTTGGATGGGTTGA [3d444]
fraction ligated: 0.804

TACACTTGTCGTAAGAACTTGGATGGGTTGA [3d693]
fraction ligated: 0.00498

TATCACTTTCTAGACACTTTGGATGGGTTGA [3d1480]
fraction ligated: 0.765

TATACTTGTCTAAGACACTTGGATGGGTTGA [3d850]
fraction ligated: 0.766

TATCACTGTCGTAAGACACTTTGGAGGTTGA [3d1457]
fraction ligated: 0.0147

TATCCTGTCGTAAGACACTTTGGAGGGTTGA [3d964]
fraction ligated: 0.0143

TATCACTTCGTAAGACACTTTGATGGGTTGA [3d1321]
fraction ligated: 0.795

TATCACTTGTCGTAAGACATTTGAGGGTTGA [3d2216]
fraction ligated: 0.00411

TACACTTGTCTAAGCACTTTGGATGGGTTGA [3d635]
fraction ligated: 0.142

TATCACTTGTCTAAGCACTTTGGATGGTTGA [3d1853]
fraction ligated: 0.165

TTCACTTGTCGAGACACTTTGGATGGGTTGA [3d416]
fraction ligated: 0.206

TATCACTTGTCGTAAGACCTTTGGATGGTTGA [2d266]
fraction ligated: 0.285

TATCACTGTCGTAAACCTTTGGATGGGTTGA [3d1399]
fraction ligated: 0.806

TATCACTTGTCGTAAGAACTTGGAGGGTTGA [3d2162]
fraction ligated: 0.0364

TATCACTTTCGTAAGACACTTTGGAGGTTGA [3d1578]
fraction ligated: 0.0266

TATCACTTGTCGTAAGACACTGGATGGGTTA [3d2236]
fraction ligated: 0.751

TATCACTTTCGTAAGAACTTTGGAGGGTTGA [3d1543]
fraction ligated: 0.126

TATCCTTGTCGTAAACACTTTGGAGGGTTGA [3d1061]
fraction ligated: 0.0122

TACACTTTCGTAAACACTTTGGATGGGTTGA [3d589]
fraction ligated: 0.0248

TATCACTTGTCGAAGACATTTGGATGGGTTG [3d1956]
fraction ligated: 0.801

ATCACTTGTCGTAAGAACTTTGGTGGGTTGA [3d234]
fraction ligated: 0.0239

TATCACTTGTTAAGACATTTGGATGGGTTGA [3d1710]
fraction ligated: 0.835

TATCACTTTCGTAAGACCTTTGGAGGGTTGA [3d1550]
fraction ligated: 0.0285

TATCATTGTCGTAAGACATTTGGATGGTTGA [3d1266]
fraction ligated: 0.567

TACACTTGTCGTAAGACACTTTGTGGGTTGA [3d722]
fraction ligated: 0.115

ATCACTTGTCGTAAGACACTTGGTGGGTTGA [3d255]
fraction ligated: 0.00771

ATCACTTGTCGAAGACATTTGGATGGGTTGA [3d190]
fraction ligated: 0.762

TATCACTTGTCGAAGACACTTGATGGGTTGA [3d1958]
fraction ligated: 0.663

TATCACTTTCTAAGACACTTTGGATGGGTTA [3d1491]
fraction ligated: 0.68

TATCACTTGTGAAGACACTTTGGTGGGTTGA [3d1726]
fraction ligated: 0.102

TATCACTTGTCGTAAGACATTGGATGGTTGA [3d2211]
fraction ligated: 0.0757

TATACTTGCGTAAGACACTTTGGTGGGTTGA [3d823]
fraction ligated: 0.014

TATCATTGTCGTAAGCACTTTGATGGGTTGA [3d1241]
fraction ligated: 0.58

TATCACTGTCTAAGACATTTGGATGGGTTGA [3d1364]
fraction ligated: 0.803

TATCACTTGTCGTAAGAACTTTGGTGGGTTGA [2d257]
fraction ligated: 0.123

TACACTTTCGTAAGACACTTTGGATGGGTTGA [2d51]
fraction ligated: 0.0483

TATCACTTGTCGTAGACACTTTGGTGGGTTA [3d2050]
fraction ligated: 0.0674

TATCACTTGTCGTAACACTTTGATGGGTTGA [3d1997]
fraction ligated: 0.464

TATCACTTGTCGTAAACACTTGATGGGTTGA [3d2082]
fraction ligated: 0.727

TATCACTTGTCTAAGACACTTTGGAGGGTTG [3d1897]
fraction ligated: 0.0676

TATCACTTGTGTAAGCACTTTGGATGGTTGA [3d1761]
fraction ligated: 0.256

TATACTTGTCGTAGACACTTTGGATGGTTGA [3d880]
fraction ligated: 0.0359

TACACTTGTCGTAGACACTTTGGTGGGTTGA [3d667]
fraction ligated: 0.0835

TATCACTTGTCGTAAGACCTTTGGAGGGTTA [3d2201]
fraction ligated: 0.0991

TATCACTTGTCGTAAGAACTTTGGATGGTTG [3d2180]
fraction ligated: 0.0734

TATCATTGTCGTAAGACACTTTGGATGGGTTGA [1d6]
fraction ligated: 0.796

TATCACTTTCGTAAGACTTTGGATGGGTTGA [3d1529]
fraction ligated: 0.823

TTCACTTGTCGTAAGACACTTTGGTGGGTTA [3d499]
fraction ligated: 0.00711

TATCACTGTCGTAAGACACTTTGGATGGGTT [3d1462]
fraction ligated: 0.365

TTCACTTGTCGTAAGACCTTTGGATGGGTTG [3d476]
fraction ligated: 0.77

TATCACTGTCGTAGAACTTTGGATGGGTTGA [3d1388]
fraction ligated: 0.886

TATCACTTGCGTAAGACATTTGGAGGGTTGA [3d1677]
fraction ligated: 0.0596

TATCACTGCGTAAGACCTTTGGATGGGTTGA [3d1334]
fraction ligated: 0.857

TACACTTGTCAAGACACTTTGGATGGGTTGA [3d632]
fraction ligated: 0.167

TAACTTGCGTAAGACACTTTGGATGGGTTGA [3d511]
fraction ligated: 0.085

TTCACTTGTCGAAGACACTTTGGATGGGTTG [3d428]
fraction ligated: 0.78

TATCACTGTCGTAAACACTTTGGATGGTTGA [3d1405]
fraction ligated: 0.166

TATCACTTGTCGTAGCACTTTGGATGGTTGA [3d2010]
fraction ligated: 0.171

TTCACTTGTGTAAGACATTTGGATGGGTTGA [3d394]
fraction ligated: 0.778

TATCATTGTCTAAGAACTTTGGATGGGTTGA [3d1191]
fraction ligated: 0.803

TTCATTTCGTAAGACACTTTGGATGGGTTGA [3d318]
fraction ligated: 0.104

TTCACTTGTCTAAACACTTTGGATGGGTTGA [3d404]
fraction ligated: 0.719

ATCACTTGTCGTAGACACTTTGGATGGGTTGA [2d12]
fraction ligated: 0.789

TATCCTTGCGTAAGAACTTTGGATGGGTTGA [3d990]
fraction ligated: 0.832

TATCATTGTCTAAGACACTTTGGATGGGTTGA [2d113]
fraction ligated: 0.785

TTCACTTGTCGTAAGACACTTGGTGGGTTGA [3d486]
fraction ligated: 0.00989

TACACTTGTCGTAAGACATTTGGATGGGTTG [3d713]
fraction ligated: 0.324

TATACTTTCGTAAGACACTTTGGAGGGTTGA [3d808]
fraction ligated: 0.00847

TATCACTTGCGTAAGAACTTTGGATGGGTTG [3d1666]
fraction ligated: 0.833

TATATTGTCGTAAACACTTTGGATGGGTTGA [3d765]
fraction ligated: 0.367

TATCACTTGTCGTAAGCCTTTGGATGGTTGA [3d2118]
fraction ligated: 0.364

ATCACTTGTGTAAGACATTTGGATGGGTTGA [3d163]
fraction ligated: 0.798

TATCACTTGTCGTAAGACACTTGGTGGGTTG [3d2247]
fraction ligated: 0.0184

GGTTATCACTTGTCGTAAGACACTTTGGATGTGA [s37]
fraction ligated: 0

TTCACTTGTCGTAAGACATTTGGTGGGTTGA [3d479]
fraction ligated: 0.0115

ATCACTTGTGTAAGACACTTTGGTGGGTTGA [3d166]
fraction ligated: 0.0152
